# Test: soluble on expression in E. coli; label from the status in PepcDB or PDB records
row,Sequence,soluble on expression in E. coli
1,MGYCVLHLEKAKGADSGMSAHIERTIVPKNIDPTRTHLNRELIMFPDGVCNRTLAIRHRLDTAGLKRKIGKNQVQAIRIVLSGTHEDMARMEDEGRLGEWCDDSVAWLRETYGAENLVSAVLHMDEETPHIHATVVPIVQGERRKQKKEENARRRYRTKAPAPRLCADEVMSRASLIRYQDTYAEHMEKYGLKRGVRGSLAKHLSTHEYYRSLITQGEDIQANIATLLSRETEASRIIAEAEQAKQELARIKAETKTVELKNSAARTATAALNGIGSLLGSNKMSRLESENRQLHGEVAELKESIEQMRTDMQKMRDSYTAEQLRVSEQHQREIGNFRRIIDKAKEWFPILAEFLRIERICRSVGLSERHTDELLQGKVLVVTGKLFSDEYKRSFTVEKVRLKVGREERDGKTVLDLLVDRVPIAAWFKEKWEKVSINRFRRNEMTIQKERGVRLLEHHHHHH,not soluble
2,MKLVCISDTHSLHRRIPEIPDGDVLIHAGDSLGQGSLENIEDLNDWLGTLPHRHKIVIAGNHDWAFQEMPGEARTALSNAVYLEDSGVEIEGNRFWGSPWTPTFMDWAFMLERGEPLYQKWQLVPDNTDVLITHGPPKGIGDEANLGFKCQNVGCVDLLARIHQLSLKAHIFGHIHEGYGEYLRGKTRLINASTCTARYEPRNAPIVVDVLEHHHHHH,not soluble
3,MFGNLGQAKKYLGQAAKMLIGIPDYDNYVEHMKTNHPDKPYMSYEEFFRERQNARYGGDGKGGMRCC,soluble
4,FLHAIIPVHRPLRVGVLTQPVHAEISVADPMLAAVDAAASALSQAGHQLVEVQRPYGDAPFAAFSDILALRSAKIHGQASPLVSWLRDRGGRIGGRRKAKAIAEFLSVRAQLLAAWDVD,not soluble
5,MAMKERYLIIDGYNMIGQSPTLSAIAKENLEEARMQLIDAIANYNAVISDEIICVFDAYDQSGVEREYMYHGVKTIFTKEKETADSFIERYVYELYDKHTKHITVVTSDMSEQHAIFGSGAYRISSREMWRDLKENEIDVSKSLDDISENKPRTRIPLSSEILAEFEKIRRGHHKKLEHHHHHH,not soluble
6,MGSDKIHHHHHHMETQDYAFQPGLTVGELLKSSQKDWQAAINHRFVKELFAGTIENKVLKDYLIQDYHFFDAFLSMLGACVAHADKLESKLRFAKQLGFLEADEDGYFQKAFKELKVAENDYLEVTLHPVTKAFQDLMYSAVASSDYAHLLVMLVIAEGLYLDWGSKDLALPEVYIHSEWINLHRGPFFAEWVQFLVDELNRVGKNREDLTELQQRWNQAVALELAFFDIGYDV,soluble
7,MGSDKIHHHHHHMKQPNYYQDVKQFHQTFHHPGADQPTAIPLDRGVKRATWTAEEAVVEFLHQSSQNETEFLAAIETFKAGLDQAVKKSLKETYPVTEVERLVGQGDALTDALYFIMGSFVEAGLEPGPLFEIVQQANMAKLGPDGQPIFRESDQKVMKPDGWLPPEPQLEAEVVRQMKEKA,not soluble
8,SCREKTELTPDQQTLLHFIMDSYNKQRMPQEITNKILKEEFSAEENFLILTEMATNHVQVLVEFTKKLPGFQTLDHEDQIALLKGSAVEAMFLRSAEIFNKKLPSGHSDLLEERIRNSGISDEYITPMFSFYKSIGELKMTQEEYALLTAIVILSPDRQYIKDREAVEKLQEPLLDVLQKLCKIHQPENPQHFACLLGRLTELRTFNHHHAEMLMSWRVNDHKFTPLLCEIWDVQ,soluble
9,MKIHHIGPMGVNPYQRQLAKTERLAAEKAPRDQVEISKEAKELQEAASWEQARQAKLEELRQQIENGAYQVDPRAVAKRMIEYYRNHR,not soluble
10,MSSLARGISRRRTEVATQVEAAPTGLRPNAVVGVRLAALADQVGAALAEGPAQRAVTEDRTVTGVTLRAQDVSPGDLFAALTGSTTHGARHVGDAIARGAVAVLTDPAGVAEIAGRAAVPVLVHPAPRGVLGGLAATVYGHPSERLTVIGITGTSGKTTTTYLVEAGLRAAGRVAGLIGTIGIRVGGADLPSALTTPEAPTLQAMLAAMVERGVDTVVMEVSSHALALGRVDGTRFAVGAFTNLSRDHLDFHPSMADYFEAKASLFDPDSALRARTAVVCIDDDAGRAMAARAADAITVSAADRPAHWRATDVAPTDAGGQQFTAIDPAGVGHHIGIRLPGRYNVANCLVALAILDTVGVSPEQAVPGLREIRVPGRLEQIDRGQGFLALVDYAHKPEALRSVLTTLAHPDRRLAVVFGAGGDRDPGKRAPMGRIAAQLADLVVVTDDNPRDEDPTAIRREILAGAAEVGGDAQVVEIADRRDAIRHAVAWARPGDVVLIAGKGHETGQRGGGRVRPFDDRVELAAALEALERRA,soluble
11,MSYKFGKLAINKSELCLANVLQAGQSFRWIWDEKLNQYSTTMKIGQQEKYSVVILRQDEENEILEFVAVGDCGNQDALKTHLMKYFRLDVSLKHLFDNVWIPSDKAFAKLSPQGIRILAQEPWETLISFICSSNNNISRITRMCNSLCSNFGNLITTIDGVAYHSFPTSEELTSRATEAKLRELGFGYRAKYIIETARKLVNDKAEANITSDTTYLQSICKDAQYEDVREHLMSYNGVGPKVADCVCLMGLHMDGIVPVDVHVSRIAKRDYQISANKNHLKELRTKYNALPISRKKINLELDHIRLMLFKKWGSYAGWAQGVLFSKEIGGTSGSTTTGTIKKRKWDMIKETEAIVTKQMKLKVELSDLHIKEAKID,soluble
12,RSFDTKQEHGISPKPTYSRIKANYFSFGYFVGRVLPYQLFDLSRIPAFKQPAPSKIGQGSVQNIVLIMGESESAAHLKLFGYGRETSPFLTRLSQADFKPIVKQS,not soluble
13,MAHHHHHHMTELLSAGEVQHPCGWAFAFPFVKRVPPAKLVRLLGTATLLDRIRENDPTLRSVRLDYELLPREEIMQALLGNNTISSVVIARVIPRNSTGTDFARFLESLYHLPLRSVQVQDGEKLPSSYLNHLLYLVEYCSGVGKACKWTDGKCYAGADLNTGNTTTEINDAEEFNGNNSREDVDSEVLDYKRGAVLEFVDFSGCRLTVRQAQWLGDILFHRRCTLRHVNACECRLGNGGVRALLRRVNTSPRLKAASIAEGSVVPLDMIELRWNGVTEDESIRNFVDVVERSPDCWTCMTVYGNYISPHMYTRCEAQVVKAKRLMEEERLKRREIPTNVEVAQPDGRLSSEKGTSCSPRRYFVDLLTSVAGEVDFVCPSLRAVSSLLHEEP,not soluble
14,MGSSHHHHHHSSGLVPRGSHMLDFNIEGLIPKNMEKRGELVLNEYLKEIEDVFNHRKIPENGIDDEKIKLFLKFLSMMDTDKDPKSVRIGEREARTYSKIHEELSSGFCHGIGRSGNLVDPQPKASGASIMYALTNKILESFFKQLGLNVHAIATPISTGMSISLCLSAARKKYGSNVVIYPYASHKSPIKAVSFVGMNMRLVETVLDGDRVYVPVEDIENAIKKEIELGNRPCVLSTLTFFPPRNSDDIVEIAKICENYDIPHIINGAYAIQNNYYLEKLKKAFKYRVDAVVSSSDKNLLTPIGGGLVYSTDAEFIKEISLSYPGRASATPVVNTLVSLLSMGSKNYLELVKNQKNSKKLLDELLNDLSKKTGGKFLDVESPIASCISVNSDPVEIAAKLYNLRVTGPRGIKKTDHFGNCYLGTYTHDYIVMNAAIGVRTEDIVNSVSKLEKILL,soluble
15,MSFTEDQEKIALEILSKDKHEFYEILKVDRKATDSEIKKAYRKLAIKLHPDKNSHPKAGEAFKVINRAFEVLSNEEKRSIYDRIGRDPDDRQMPSRGAASGFRGSAGGSPMGGGFEDMFFNSRFGGQRAGPPEDIFDFLFNAGGSPFGASPFGPSASTFSFGGPGGFRVYTNNRGGSPFMRQQPRSRQQQQQAEENAVNSQLKN,not soluble
16,MGSSHHHHHHGGTGENLYFQGGSGSSCRGIVVAGVTNQARTQMAEAFLRAFTGGRVFVCSGGVHHLGTVHPLAVVTMAEMGIDVSRQSSSSLAGVRRQRETYDVYVSVDAPYTERTSDRYQRRYTDTQAAQQSSMGAAGLSAPCASSTSDFCDPLLASATPAHWTVSQDTTDGRQSWTLWSPRNPAIYHERSTRKLQDHLYEGEPLFMRVRPHGLRKACRVQRRWEVPELTQRFALETEAEQKARFVQARDLLGSLALVLVRDLEREYGETMLDEAAVAAYEKVAATEC,not soluble

# From the DeepSol protein solubility set
